According to patent publication US20160102129A1 (Novo Nordisk, published 2016):
*1 amine or outer side, *2 acyl side, *3 side chain or, on linkers, in order; H or OH if unused. Where no end group is shown, it is not given here. Side-chain parts run from the residue outwards. [ ]: non-standard residue; d: D form. The star is where a group is joined. C20 diacid = O=C(O)CCCCCCCCCCCCCCCCCCC(=O)*; C18 diacid = O=C(O)CCCCCCCCCCCCCCCCC(=O)*; γGlu = O=C(O)[C@H](CCC(=O)[*:2])N[*:1]; Desaminohistidyl = O=C(CCc1c[nH]cn1)*; Ac4c = NC1(C(=O)O)CCC1; AEEA = NCCOCCOCC(=O)O; Aib = CC(C)(N)C(=O)O

Legend:
[1] = molecular target: T1, human GLP-1 receptor (human, UniProt P43220 24-463); experiment: SPA displacement of [125I]GLP-1(7-36)NH2 from hGLP-1R BHK membranes
T1 construct: whole, on cells; reporter assay on whole cells
Protocol: The GLP-1 receptor binding of each derivatives were determined with competitive binding, displacing [¹²⁵I]GLP-1 bound to GLP-1 receptors expressed in cell membranes associated with wheat germ agglutinin (WGA) scintillation proximity assay (SPA) beads. Each derivative was added in a series of concentrations to isolated membranes comprising the human GLP-1 receptor and displacement of the labelled radioligand was monitored. The receptor binding was reported as the concentration at which half of the labelled ligand is displaced from the receptor, the IC⁵⁰ value.
1. For the receptor binding assay 50 μl of the assay buffer was added to each well of an assay plate. [0588] 2. Test compounds were serially diluted to give the following concentrations: 8×10EE-7 M, 8×10EE-8 M, 8×10EE-9 M, 8×10EE-10 M, 8×10EE-11 M, 8×10EE-12 M and 8×10EE-13 M. Twenty-five μl were added to appropriate wells in the assay plate. [0589] 3. Cell membrane aliquots were thawed and diluted to their working concentration. Fifty μl were added to each well in the assay plate. [0590] 4. WGA SPA beads were suspended in assay buffer at 20 mg/ml. The suspension was diluted to 10 mg/ml in assay buffer just prior to addition to the assay plate. Fifty μl were added to each well in the assay plate. [0591] 5. […] A 25 μl aliquot was reserved for measuring total counts/well. [0592] 6. The assay plate was incubated for 2 h at 30° C. [0593] 7. The assay plate was centrifuged for 10 min. [0594] 8. The assay plate was read in a Perkin Elmer TopCount NXT instrument.

[2] = molecular target: T1, human GLP-1 receptor; experiment: cell-based or functional assay
[3] = molecular target: T2, human glucagon receptor (human, UniProt P47871 26-477); experiment: cell-based or functional assay
T2 sequence (P47871 26-477): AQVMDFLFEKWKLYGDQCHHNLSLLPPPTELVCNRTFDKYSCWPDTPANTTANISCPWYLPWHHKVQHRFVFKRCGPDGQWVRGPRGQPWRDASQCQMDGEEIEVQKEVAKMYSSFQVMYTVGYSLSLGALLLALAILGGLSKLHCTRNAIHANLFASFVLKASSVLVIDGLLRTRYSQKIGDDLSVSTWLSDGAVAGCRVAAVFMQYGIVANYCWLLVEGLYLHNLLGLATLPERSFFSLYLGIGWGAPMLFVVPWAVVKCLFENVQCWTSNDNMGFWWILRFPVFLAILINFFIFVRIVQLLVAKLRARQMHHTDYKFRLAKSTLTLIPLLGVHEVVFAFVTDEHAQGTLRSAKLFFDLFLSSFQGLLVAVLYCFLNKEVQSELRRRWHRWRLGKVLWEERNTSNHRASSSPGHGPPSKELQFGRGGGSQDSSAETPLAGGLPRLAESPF

[4] = molecular target: T2, human glucagon receptor; experiment: SPA displacement of [125I]-glucagon from human glucagon receptor BHK membranes
Protocol: 1. For the receptor binding assay 50 μl of the assay buffer was added to each well of an assay plate. [0603] 2. Test compounds were serially diluted to give the following concentrations: 8×10EE-7 M, 8×10EE-8 M, 8×10EE-9 M, 8×10EE-10 M, 8×10EE-11 M, 8×10EE-12 M and 8×10EE-13 M. Twenty-five μl were added to appropriate wells in the assay plate. [0604] 3. Cell membrane aliquots were thawed and diluted to their working concentration. Fifty μl were added to each well in the assay plate. [0605] 4. WGA SPA beads were suspended in assay buffer at 20 mg/ml. The suspension was diluted to 10 mg/ml in assay buffer just prior to addition to the assay plate. Fifty μl were added to each well in the assay plate. [0606] 5. […] A 25 μl aliquot was reserved for measuring total counts/well. […] 6. The assay plate was incubated for 2 h at 25° C. [0608] 7. The assay plate was centrifuged for 10 min at 1500 rpm. [0609] 8. The assay plate was read in a Perkin Elmer TopCount NXT instrument.

| Binder | IC50 [1] | EC50 GLP-1R [pM], CRE luciferase reporter gene assay [2] | EC50 GlucagonR [pM], CRE luciferase reporter gene assay [3] | IC50 [4] |
| --- | --- | --- | --- | --- |
| [Desaminohistidyl][Aib]HGTFTSDLSKYLEEQAAREFIAWLLK([Ado-Ado-γGlu-γGlu-C18 diacid])T-NH2 | 1.1 nM | 14.7 pM | 54.2 pM | 5.1 nM |
| [Desaminohistidyl][Aib]HGTFTSDVSRYLEGQAAREFIAWLLK([Gly-Ser-Glu-Gly-Ser-γGlu-γGlu-C18 diacid])T-NH2 | 0.9 nM | 17 pM | 143 pM | 8.9 nM |
| [Desaminohistidyl][Ac4c]HGTFTSDVSKYLEEQAAREFIAWLLKK([Gly-Ser-Glu-Gly-Ser-γGlu-γGlu-C18 diacid])-NH2 | 0.1 nM | 2 pM | 163 pM | 43.9 nM |
| XXHGTFTSDYSKYLERQAAREFIAWLLKK (Imp (desamino-His) at 7; Acb at 8; Lys35 N-epsilon acylated with 17-carboxyheptadecanoyl-γGlu-γGlu-Ado-γGlu-Ado-γGlu-Ado-γGlu-; C-terminal amide (GLP-1(7-37) numbering)) | 2.3 nM | 7 pM | 84 pM | 11.7 nM |
| [Desaminohistidyl][Aib]HGTFTSDVSKYLEEQAAREFIAWLIK([Ado-Ado-γGlu-γGlu-C18 diacid])T-NH2 | 0.2 nM | 18.3 pM | 106 pM | 11.8 nM |
| XXHGTFTSDYSRYLEGRAAREFIAWLLRK (Imp (desamino-His) at 7; Acb at 8; Lys35 N-epsilon acylated with 17-carboxyheptadecanoyl-γGlu-γGlu-Ado-γGlu-Ado-γGlu-Ado-γGlu-; C-terminal amide (GLP-1(7-37) numbering)) | 6.8 nM | 18.5 pM | 226 pM | 36.7 nM |
| [Desaminohistidyl][Aib]HGTFTSDVSKYLEAQAAREFIAWLLK([γGlu-γGlu-Ado-γGlu-γGlu-C18 diacid])T-NH2 | 0.6 nM | 3 pM | 21 pM | 1.7 nM |
| [Desaminohistidyl][Aib]HGTFTSDVSRYLEEQAAREFIAWLLK([Gly-Ser-Glu-Gly-Ser-γGlu-γGlu-C18 diacid])T-NH2 | 0.5 nM | 6 pM | 60 pM | 3.8 nM |
| XXHGTFTSDYSKYLERRAAREFIAWLLKK (Imp (desamino-His) at 7; Acb at 8; Lys35 N-epsilon acylated with 17-carboxyheptadecanoyl-γGlu-γGlu-Ado-γGlu-Ado-γGlu-Ado-γGlu-; C-terminal amide (GLP-1(7-37) numbering)) | 1.8 nM | 8 pM | 54 pM | 8.6 nM |
| [Desaminohistidyl][Ac4c]HGTFTSDYSKYLEEQAAREFIAWLLKK([Gly-Ser-Glu-Gly-Ser-γGlu-γGlu-C18 diacid])-NH2 | 0.7 nM | 5.7 pM | 117 pM | 16 nM |
| XXHGTFTSDYSRYLEEQAAREFIAWLLRK (Imp (desamino-His) at 7; Acb at 8; Lys35 N-epsilon acylated with 17-carboxyheptadecanoyl-γGlu-γGlu-Ado-γGlu-Ado-γGlu-Ado-γGlu-; C-terminal amide (GLP-1(7-37) numbering)) | 0.9 nM | 3 pM | 71 pM | 5.6 nM |
| [Desaminohistidyl][Ac4c]HGTFTSDVSKYLEGRAAREFIAWLLK([Gly-Ser-Glu-Gly-Ser-γGlu-γGlu-C18 diacid])T-NH2 | 0.3 nM | 12 pM | 28 pM | 7.2 nM |
| XXHGTFTSDYSKYLEEQAAREFIAWLLKK (Imp (desamino-His) at 7; Acb at 8; Lys35 N-epsilon acylated with 17-carboxyheptadecanoyl-γGlu-γGlu-Ado-γGlu-Ado-γGlu-Ado-γGlu-; C-terminal amide (GLP-1(7-37) numbering)) | 1.4 nM | 3 pM | 78 pM | 6.9 nM |
| XXHGTFTSDYSKYLEGRAAREFIAWLLKK (Imp (desamino-His) at 7; Acb at 8; Lys35 N-epsilon acylated with 17-carboxyheptadecanoyl-γGlu-γGlu-Ado-γGlu-Ado-γGlu-Ado-γGlu-; C-terminal amide (GLP-1(7-37) numbering)) | 7.3 nM | 16 pM | 222 pM | 22.5 nM |
| [Desaminohistidyl]AHGTFTSDVSKYLEGRAAREFIAWLLK([Ado-Ado-γGlu-γGlu-γGlu-C18 diacid])T-NH2 | 1 nM | 8 pM | 229 pM | 25.9 nM |
| [Desaminohistidyl]AHGTFTSDVSRYLEEQAARK([AEEA-AEEA-γGlu-γGlu-γGlu-C18 diacid])FIAWLLR | 2.2 nM | 8 pM | 1290 pM | 126 nM |
| [Desaminohistidyl][Aib]HGTFTSDVSRYLEEQAARK([AEEA-AEEA-γGlu-γGlu-γGlu-C18 diacid])FIAWLLR | 2.9 nM | 7 pM | 143 pM | 21.2 nM |
| [Desaminohistidyl][Aib]HGTFTSDVSKYLEEQAAREFIAWLLK([Gly-Ser-Glu-Gly-Ser-γGlu-γGlu-C20 diacid])T-NH2 | 0.4 nM | 5 pM | 111 pM | 6 nM |
| [Desaminohistidyl][Aib]HGTFTSDVSKYLEARAAREFIAWLLKGGG (not fully specified (residue 28); printed as Nε34-[(4S)-4-carboxy-4-[[2-[2-[2-[[2-[2-[2-[[(4S)-4-carboxy-4-[[(4S)-4-carboxy-4-(17-carboxyheptadecanoylamino)butanoyl]amino]butanoyl]amino]ethoxy]ethoxy]acetyl]amino]ethoxy]ethoxy]acetyl]amino]butanoyl]-[Imp7,Aib8,His9,Lys18,Ala22,Arg23,Arg26,Leu33,Gly36]-GLP-1-(7-37)-peptide) | 0.3 nM | 2.2 pM | 39.4 pM | 3.7 nM |
| [Desaminohistidyl][Aib]HGTFTSDVSRYLEGRAAREFIAWLLK([γGlu-γGlu-AEEA-γGlu-γGlu-C18 diacid])GAG | 1 nM | 3 pM | 248 pM | 18.8 nM |
| [Desaminohistidyl][Aib]HGTFTSDVSKYLEEQAAREFIAWLLK([γGlu-γGlu-Ser-Gly-Glu-Ser-Gly-C18 diacid])T (Named as peptide, not peptide amide (C-terminal acid)) | 2.3 nM | 5.5 pM | 84.5 pM | 11.9 nM |
| [Desaminohistidyl][Aib]HGTFTSDVSKYLEEQAAREFIAWLLK([Ado-Ado-γGlu-C18 diacid])T-NH2 | 0.7 nM | 6 pM | 83 pM | 20.3 nM |
